Molecular target: nucleosome with full-length recombinant Xenopus laevis histones acetylated by the lysine acetyltrans (X. laevis) (UniProt P62799)
Experiment: single-particle negative-staining TEM in a DNA origami force spectrometer

depth of the minimum of the nucleosome pair potential: -0.6 kcal/mol
Substance: nucleosome with full-length recombinant Xenopus laevis histones acetylated by the lysine acetyltrans (from UniProt P62799 1-103) (complex)

— paper PMC5262459
